Experiment [1] deals with T1, Fusion protein of extracellular domain of human TIGIT and His-tag (human TIGIT ECD-his) (human).
T1 chain: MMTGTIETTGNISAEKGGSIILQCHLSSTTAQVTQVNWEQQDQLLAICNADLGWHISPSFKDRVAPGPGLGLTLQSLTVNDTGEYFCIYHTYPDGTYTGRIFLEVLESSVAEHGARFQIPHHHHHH
Briefly: BIAcore.

Experiment [2] deals with T2, Fusion protein of extracellular domain of human TIGIT and mouse IgG2a Fc fragment (human TIGIT ECD-mFc) (human).
T2 construct: The entry includes the signal peptide (limits not recoverable) and the mouse IgG2a Fc
T2 chain: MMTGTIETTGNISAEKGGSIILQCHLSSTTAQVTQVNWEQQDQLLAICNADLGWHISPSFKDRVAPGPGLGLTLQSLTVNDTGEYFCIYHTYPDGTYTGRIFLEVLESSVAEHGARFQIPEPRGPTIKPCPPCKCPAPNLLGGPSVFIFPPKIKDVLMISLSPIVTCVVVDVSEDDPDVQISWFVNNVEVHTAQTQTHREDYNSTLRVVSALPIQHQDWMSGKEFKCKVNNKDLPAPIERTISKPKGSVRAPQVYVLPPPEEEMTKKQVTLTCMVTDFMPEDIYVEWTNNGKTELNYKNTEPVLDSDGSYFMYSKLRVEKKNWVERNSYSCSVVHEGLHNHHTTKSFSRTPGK
Put plainly: ELISA, human TIGIT ECD-mFc. A digest of the protocol:
(§1)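 Antibodies diluted to 13 nM in 1% BSA, then 3-fold serial dilution for 12 concentrations, incubated with milk-blocked plates at 37° C for 1.5-2 h. Bound antibody detected with HRP-labelled secondary antibody (1:5000, 37° C, 1 h) and TMB, stopped with 1M HCl; OD450 nm read.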

Experiment [3] deals with T1, Fusion protein of extracellular domain …. Put plainly: BIAcore; KD ratio to TIGIT-CHI-070.
In experiment [4] the target is T3, Fusion protein of extracellular domain of cynomolgus monkey TIGIT and mouse IgG2a Fc fragment (cynomolgus … (cynomolgus monkey)).
T3 construct: The entry includes the signal peptide (limits not recoverable) and the mouse IgG2a Fc
T3 sequence (chain, as listed by the source limits assumed): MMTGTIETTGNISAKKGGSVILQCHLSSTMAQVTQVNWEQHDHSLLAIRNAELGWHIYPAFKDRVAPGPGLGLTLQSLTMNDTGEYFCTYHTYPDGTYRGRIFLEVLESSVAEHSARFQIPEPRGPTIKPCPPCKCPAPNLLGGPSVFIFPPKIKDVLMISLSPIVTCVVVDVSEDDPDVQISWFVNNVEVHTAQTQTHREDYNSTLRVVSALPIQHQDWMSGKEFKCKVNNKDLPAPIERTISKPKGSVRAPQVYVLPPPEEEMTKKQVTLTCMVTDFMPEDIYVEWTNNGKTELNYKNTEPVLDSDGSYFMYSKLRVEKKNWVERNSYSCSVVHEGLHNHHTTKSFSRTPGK
Put plainly: ELISA, cynomolgus monkey TIGIT ECD-mFc. Put shortly: as §1

For experiment [5], the target named is T4, Full-length cynomolgus monkey TIGIT on CHO-K1 cells (CHO-K1 cynomolgus monkey TIGIT) (cynomolgus monkey).
T4 construct: NCBI XP_015300911.1
T4 sequence (chain, as listed by the source limits assumed): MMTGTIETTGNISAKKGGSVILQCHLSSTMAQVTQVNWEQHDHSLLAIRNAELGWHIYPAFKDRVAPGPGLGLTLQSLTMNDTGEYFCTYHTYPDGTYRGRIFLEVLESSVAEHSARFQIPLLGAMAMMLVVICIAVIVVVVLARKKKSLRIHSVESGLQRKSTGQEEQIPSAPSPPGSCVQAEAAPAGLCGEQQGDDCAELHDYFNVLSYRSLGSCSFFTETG
Briefly: cell binding, CHO-K1 cynomolgus monkey TIGIT. Put shortly: (§2)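 Binding was measured by flow cytometry after a 60-minute, 4° C incubation of the antibodies with 2×10⁵ CHO-K1 cells displaying full-length human or cynomolgus monkey TIGIT. Antibody titration: 12 points, threefold serial dilution from 80 nM, in 1% BSA-PBS.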

The target in experiment [6] is T5, Fusion protein of extracellular domain of human TIGIT and human IgG1 Fc fragment (human TIGIT ECD-hFc) (human).
T5 construct: The entry includes the signal peptide (limits not recoverable) and the human IgG1 Fc
T5 sequence (chain, as listed by the source limits assumed): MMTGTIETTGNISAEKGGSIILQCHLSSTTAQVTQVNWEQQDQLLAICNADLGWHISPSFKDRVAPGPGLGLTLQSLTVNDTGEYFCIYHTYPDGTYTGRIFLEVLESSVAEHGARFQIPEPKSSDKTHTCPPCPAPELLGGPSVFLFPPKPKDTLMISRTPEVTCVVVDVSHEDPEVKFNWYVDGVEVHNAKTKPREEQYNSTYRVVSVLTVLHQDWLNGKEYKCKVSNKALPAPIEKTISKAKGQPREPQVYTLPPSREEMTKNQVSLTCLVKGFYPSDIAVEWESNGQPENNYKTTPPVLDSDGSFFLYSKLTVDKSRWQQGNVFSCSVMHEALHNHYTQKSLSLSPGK
Put plainly: blocking of TIGIT ECD-hFc binding to CHO-K1 CD155 cells. A digest of the protocol:
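Cell-based ELISA on CHO-K1 CD155 cells, cultured overnight, fixed and blocked with 5% skim milk-PBS. Antibodies were premixed for 0.5 h with human TIGIT ECD-hFc (working concentration 30 ng/mL), then added and held at 37° C for 1.5-2 h. Bound TIGIT was detected with HRP secondary antibody (1:5000, 37° C, 1 h) and TMB, read as OD450 nm. IC50 came from the inhibition curves.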

In experiment [7] the target is T6, Full-length human TIGIT on CHO-K1 cells (CHO-K1 human TIGIT) (human, UniProt Q495A1 22-244).
T6 construct: NCBI XP_024309156.1; the entry includes the signal peptide (limits not recoverable); The strain (high, medium, low) is named under assay; also called high expression strain 1D2; medium expression strain 2D10
T6 sequence: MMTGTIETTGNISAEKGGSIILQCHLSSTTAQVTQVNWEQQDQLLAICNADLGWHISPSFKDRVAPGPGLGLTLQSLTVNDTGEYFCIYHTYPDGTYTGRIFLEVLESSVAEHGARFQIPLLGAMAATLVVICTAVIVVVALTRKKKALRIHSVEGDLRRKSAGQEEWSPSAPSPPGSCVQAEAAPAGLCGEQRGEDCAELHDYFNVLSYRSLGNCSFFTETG
Put plainly: cell binding, CHO-K1 human TIGIT high expression strain. A digest of the protocol: as §2

The target of experiment [8] is T7, human PVRIG-his (AcroBiosystems, Cat NO. PVG-H52H4) (human, UniProt Q6DKI7 41-171, limits assumed).
T7 construct: Bought reagent; also called human PVRIG protein
T7 sequence (looked up): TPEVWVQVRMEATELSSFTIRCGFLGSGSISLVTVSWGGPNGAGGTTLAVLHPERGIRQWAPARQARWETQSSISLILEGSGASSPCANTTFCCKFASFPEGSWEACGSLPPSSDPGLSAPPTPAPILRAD
Put plainly: ELISA, coated human PVRIG-his. How it is done: (§3) The ELISA plate was pre-coated with 100 μL/well of 0.5 μg/mL human PVRIG-his (AcroBiosystems, Cat NO. PVG-H52H4) or cynomolgus monkey PVRIG (Novoprotein, Cat NO. C09B). […] A HRP substrate, TMB (Thermo, Cat NO. 34029) was added into wells after washing the plate again for color development. After adding a termination solution to terminate the reaction, the absorbance value was read by a microplate reader (MD i3×). An antibody binding curve was drawn with concentration of antibodies as the abscissa and the corresponding OD value as the ordinate. The EC50 value was calculated by using a Four Parameter Logistic Fit (GraphPadPrism9). The smaller the EC50 value, the stronger the ability of the antibodies binds to human or cynomolgus monkey PVRIG. The positive control antibodies are COM701-hIgG1 (Patent No.:US20180244774A1), COM701-hIgG4 (patent No.: US20180244774A1) and SRF813-hIgG1 (Patent No.:US20200040081A1); and the negative control antibodies are anti-HA HcAb-hIgG1 (Chengdu NB Biolab, Cat NO. NBR022), anti-CD38 HcAb-hIgG1 (in-house) and anti-Fluorescein-hIgG1 (in house).

The target in experiment [9] is T8, cynomolgus monkey PVRIG (Novoprotein, Cat NO. C09B) (cynomolgus monkey, UniProt A0A2K5WVV8 41-171).
T8 construct: Bought reagent; also called cynomolgus monkey PVRIG protein
T8 sequence: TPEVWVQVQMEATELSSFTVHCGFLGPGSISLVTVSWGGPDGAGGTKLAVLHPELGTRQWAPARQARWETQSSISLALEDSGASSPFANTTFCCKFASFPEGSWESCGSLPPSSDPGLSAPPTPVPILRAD
Put plainly: ELISA, coated cynomolgus monkey PVRIG. The protocol:
as §3

In experiment [10] the target is T9, human PVRIG on FlpinCHO-PVRIG cells (human, UniProt Q6DKI7 41-326).
T9 construct: whole, on cells
T9 sequence (looked up): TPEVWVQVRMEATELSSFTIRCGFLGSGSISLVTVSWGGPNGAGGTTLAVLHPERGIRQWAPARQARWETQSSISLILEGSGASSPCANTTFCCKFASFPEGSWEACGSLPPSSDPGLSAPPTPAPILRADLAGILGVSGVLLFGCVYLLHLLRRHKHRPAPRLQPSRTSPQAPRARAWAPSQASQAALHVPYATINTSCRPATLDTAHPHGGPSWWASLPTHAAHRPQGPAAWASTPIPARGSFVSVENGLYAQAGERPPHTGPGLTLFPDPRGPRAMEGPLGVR
Briefly: FACS, FlpinCHO-PVRIG cells; AUC of MFI curve relative to COM701-hIgG1. The protocol:
(§4) The Ham's F12 (Gibico, 21127-022) complete medium containing 10% FBS was then added to terminate the digestion and acquire cell suspension. After counting with a cell counter (Beckman Coulter, Vi-CELL), an appropriate amount of cell suspension was centrifuged at 350×g to remove the supernatant, washed twice with PBS, stained with Zombie violet (Biolegend, 423114) and incubated at room temperature for 20 minutes. After incubation, the cells were added with staining buffer (2% FBS+PBS) to stop staining, centrifuged at 350×g to remove the supernatant, washed twice and resuspended with staining buffer to a density of 2×10⁶ cells/mL. The cells were plated into a 96-well plate (50 μL of cell suspension per well) for further use. The antibodies were diluted from the highest concentration of 46 nM (two-fold concentration) with staining buffer by 3.3-fold serial dilution. The diluted antibodies were added to the well containing 50 μL of cell suspension. The plate was placed on a microplate shaker at 400 rpm for 1 minute to fully mix the antibodies and cells, and then incubated at 4° C. for 30 minutes. After the incubation, the cells were washed twice with staining buffer (200 μL per well) and centrifuged at 350×g for 5 minutes to discard the supernatant. The PE goat anti-human IgG Fc antibody (ebioscience, 12-4998-82) was diluted 250 times with staining buffer, added into the washed wells (100 μL per well), mixed well, and stained at 4° C. for 30 minutes. After staining, the cells were washed twice with staining buffer, finally resuspended with 200 μL staining buffer and analyzed by flow cytometry (BD, Canto II). The stronger the signal, the stronger the ability of the antibodies binds to PVRIG. An antibody binding curve was drawn with concentration of antibodies as the abscissa and the corresponding Mean Fluorescence Intensity (MFI) as the ordinate. The AUC value of the curve was calculated by using a Four Parameter Logistic Fit (GraphPadPrism9). The stronger the AUC value, the stronger the ability of the antibodies binds to FlpinCHO-PVRIG and FlpinCHO-cyno PVRIG. […] The binding activity of the antibodies was normalized to the positive control COM701-hIgG1 and SRF813-hIgG1.

In experiment [11] the target is T9, human PVRIG on FlpinCHO-PVRIG cells. Briefly: FACS, FlpinCHO-PVRIG cells; AUC of MFI curve relative to SRF813-hIgG1. The protocol: as §4
Experiment [12] has as its target T10, cynomolgus monkey PVRIG on FlpinCHO-cyno PVRIG cells (cynomolgus monkey, UniProt A0A2K5WVV8 41-322).
T10 construct: whole, on cells
T10 sequence: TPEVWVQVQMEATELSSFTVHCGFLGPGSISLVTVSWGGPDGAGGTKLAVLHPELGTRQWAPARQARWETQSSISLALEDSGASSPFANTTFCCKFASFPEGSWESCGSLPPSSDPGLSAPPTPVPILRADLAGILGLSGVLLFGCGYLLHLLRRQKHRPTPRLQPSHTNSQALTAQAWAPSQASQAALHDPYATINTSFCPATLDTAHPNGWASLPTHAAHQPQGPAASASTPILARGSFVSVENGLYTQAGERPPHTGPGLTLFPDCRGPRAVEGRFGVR
Put plainly: FACS, FlpinCHO-cyno PVRIG cells; AUC of MFI curve relative to COM701-hIgG1. The protocol: as §4

Experiment [13] has as its target T10, cynomolgus monkey PVRIG on …. Briefly: FACS, FlpinCHO-cyno PVRIG cells; AUC of MFI curve relative to SRF813-hIgG1. The protocol:
as §4

Results on 4 molecules are retold here after patent publication US20240343803A1 (SHANDONG SIMCERE BIOPHARMACEUTICAL, published 2024).

B1: TIGIT-070-H2L1 (antibody, V domains shown)
VH: EVQLVQSGAEVKKPGASVKVSCKASGYTFTNYYMHWVRQAPGQRLEWMGRIDPDSGGSKYNEKFKSRVTITVDKLSSTAYMELSSLRSEDTAVYYCAREGHYGFYSDYWGQGTTVTVSS
VL: DIQMTQSPSSLSASVGDRVTITCRVSENIYSYLAWYQQKPGKSPKLLIYNAKTLAEGVPSRFSGSGSGTDFTLTISSLQPEDFATYYCQHHYGNPLTFGPGTKVDIK
notes: Humanized anti-TIGIT antibody
Regarding B1, in experiment [1], the affinity, expressed as Kd, was 0.0808 nM. Besides, the off-rate constant (koff) in [1] came to 0.000134 s⁻¹. The molecule further registered a kon in experiment [1] of 1.66e+06 M⁻¹ s⁻¹. For the same molecule, the EC50 in experiment [2] was 0.0129 nM; in experiment [4] it was 0.0124 nM; in experiment [5], 0.0799 nM; in experiment [7], 0.0236 nM. For the same molecule, the “Fold change vs chimeric antibodies (KD)” value in experiment [3] was found to be 0.82 fold. In addition, in experiment [6], the IC50 turned out to be 0.393 nM.

B2: TIGIT-070-H1L2 (antibody, V domains shown)
VH: EVQLVQSGAEVKKPGASVKVSCKASGYTFTNYYMHWVRQAPGQRLEWMGRIDPDSGGSKYNEKFKSRVTITVDKSASTAYMELSSLRSEDTAVYYCAREGHYGFYSDYWGQGTTVTVSS
VL: DIQMTQSPSSLSASVGDRVTITCRVSENIYSYLAWYQQKPGKSPKLLVYNAKTLAEGVPSRFSGSGSGTDFTLTISSLQPEDFATYYCQHHYGNPLTFGPGTKVDIK
notes: Humanized anti-TIGIT antibody
B2: binding in experiment [1] was put at a Kd of 0.0883 nM. In experiment [1], this molecule came in with a koff of 0.000148 s⁻¹. The molecule further gave an association rate constant (kon) in [1] of 1.67e+06 M⁻¹ s⁻¹. The concentration giving a half-maximal response (EC50) in [2] stood at 0.0118 nM; in [4] it was 0.0116 nM; in experiment [5], 0.0879 nM; in [7], 0.0272 nM. Moreover, the “Fold change vs chimeric antibodies (KD)” value in experiment [3] was 0.9 fold. The molecule also gave a 50% inhibitory concentration (IC50) in [6] of 0.421 nM.

B3: PVRIG-A104 (Fc fusion)
chain: EVQVVESGGGLVQAGGSLRLSCAASGRTRSMYVMGWFRQAPGKEREFVGRIKWSGDTTYTSYADFVKGRFTLYGNQARNTVYLQMNSLKPEDTAVYYCYRRSWTNTKLYWGKGIQVTVSS
notes: Alpaca VHH joined to human IgG1 Fc (VHH-hinge-CH2-CH3); not shown: human IgG1 hinge-CH2-CH3
Turning to B3, the concentration giving a half-maximal response (EC50) amounted to 0.0659 nM in [8] and 0.0353 nM in experiment [9]. Further, the entries for the “% AUC to COM701-hIgG1” value in experiment [10] and in [12] were 18.1% and 18.4%, respectively. Moreover, the “% AUC to SRF813-hIgG1” value in [11] and in experiment [13] was 23.9% throughout.

B4: PVRIG-A43 (Fc fusion)
chain: QVQLVESGGGLVQSGGSLRLSCAASGRTRSMYVMGWFRQAPGKEREFVGRIKWSGDTTYTSYADFVKGRFTLYGNQARNTVYLQMNSLKVEDTAVYYCAGRVVPLPSRQRDRYDYWGQGTQVTVSS
notes: as for B3
Turning to B4, the figures for the EC50 in [8] and in experiment [9] were 0.0537 nM and 0.036 nM, respectively. Also, the results for the “% AUC to COM701-hIgG1” value in experiment [10] and in experiment [12] were 165% and 19.6%, respectively. For the same molecule, the “% AUC to SRF813-hIgG1” value in experiment [11] worked out at 181%; in experiment [13] it was 25.7%.
